# Target: mouse Grg4 (mouse) (UniProt Q62441)
# Experiment: cell-based or functional assay
# mouse Grg4 (mouse), sequence (Q62441 whole entry): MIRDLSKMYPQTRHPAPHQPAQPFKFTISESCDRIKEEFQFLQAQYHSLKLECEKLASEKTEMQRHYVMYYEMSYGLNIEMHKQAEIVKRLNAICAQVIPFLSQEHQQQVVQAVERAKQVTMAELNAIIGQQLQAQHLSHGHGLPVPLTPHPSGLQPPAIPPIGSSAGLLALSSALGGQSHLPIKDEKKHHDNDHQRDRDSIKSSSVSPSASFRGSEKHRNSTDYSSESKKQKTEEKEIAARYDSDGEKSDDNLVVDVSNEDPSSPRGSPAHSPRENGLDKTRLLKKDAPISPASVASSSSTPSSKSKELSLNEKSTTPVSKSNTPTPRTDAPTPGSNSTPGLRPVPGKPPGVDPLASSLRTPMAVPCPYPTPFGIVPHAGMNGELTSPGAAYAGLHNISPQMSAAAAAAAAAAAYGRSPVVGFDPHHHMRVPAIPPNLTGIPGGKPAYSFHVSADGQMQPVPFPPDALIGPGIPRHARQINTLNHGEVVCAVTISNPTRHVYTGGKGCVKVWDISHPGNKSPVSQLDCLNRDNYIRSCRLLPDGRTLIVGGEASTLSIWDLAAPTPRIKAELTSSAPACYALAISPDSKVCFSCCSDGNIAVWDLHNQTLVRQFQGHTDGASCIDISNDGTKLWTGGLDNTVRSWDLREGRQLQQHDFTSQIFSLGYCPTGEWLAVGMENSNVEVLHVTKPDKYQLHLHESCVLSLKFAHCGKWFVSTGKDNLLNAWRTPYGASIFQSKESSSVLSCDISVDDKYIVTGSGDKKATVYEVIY
# mouse Grg4, sequence (Q62441 whole entry): as above
row,Substance,"repressor activity in the UAS-luciferase reporter assay in COS-7 cells, with increasing amounts of co-transfected Grg4 [fold]"
1,Gal-Nkx2.9 (full-length Nkx2.9 fused to the DNA binding domain of yeast Gal4) (from UniProt P04386 1-147; O70584 1-235),< 10
2,Gal-Nkx6.1 (full-length Nkx6.1 fused to the DNA binding domain of yeast Gal4) (from UniProt P04386 1-147; O35762 1-365),< 10
3,Gal-Nkx6.1ΔTN (Nkx6.1 lacking aa 90-113 fused to the DNA binding domain of yeast Gal4) (from UniProt P04386 1-147; O35762 1-89; O35762 114-365),2
4,Gal-Nkx6.2ΔTN (Nkx6.2 lacking aa 2-73 fused to the DNA binding domain of yeast Gal4) (from UniProt P04386 1-147),2

# Results, then the substance that gave them:
row,"repressor activity in the UAS-luciferase reporter assay in COS-7 cells, with increasing amounts of co-transfected Grg4 [fold]",Substance
1,< 10,Gal-Nkx2.2 (full-length Nkx2.2 fused to the DNA binding domain of yeast Gal4) (from UniProt P04386 1-147)
2,< 10,Gal-Nkx6.2 (full-length Nkx6.2 fused to the DNA binding domain of yeast Gal4) (from UniProt P04386 1-147; P43688 1-289)

# Target: Nkx6.1ΔTN (Nkx6.1 with the TN domain deleted, Δaa 90-113) (rat) (UniProt O35762)
# Experiment: immuno-precipitation, 35S-labelled Grg4, Nkx protein on antibody-proteinA-sepharose
# Nkx6.1ΔTN (Nkx6.1 with the TN domain deleted, Δaa 90-113) (rat), sequence (O35762 other isoform, or with tags, fused parts or gaps mutant): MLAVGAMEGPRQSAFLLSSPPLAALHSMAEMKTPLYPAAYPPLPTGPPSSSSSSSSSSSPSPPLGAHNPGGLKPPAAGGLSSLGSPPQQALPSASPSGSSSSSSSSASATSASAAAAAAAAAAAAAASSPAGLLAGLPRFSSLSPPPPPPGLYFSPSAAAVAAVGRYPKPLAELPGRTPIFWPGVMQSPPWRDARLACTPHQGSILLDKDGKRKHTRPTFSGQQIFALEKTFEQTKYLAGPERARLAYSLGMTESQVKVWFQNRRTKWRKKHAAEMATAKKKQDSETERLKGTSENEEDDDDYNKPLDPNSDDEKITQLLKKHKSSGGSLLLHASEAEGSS
row,Substance,fold reduction of the interaction with Grg4 compared to the full-length protein [fold]
1,mouse Grg4 (from UniProt Q62441 1-773),5
